How the values were obtained:
Test in all cases: SEC-MALS; size-exclusion chromatography (Superdex 200) in 10-mM Tris, pH 7.5, 150-mM NaCl with Dawn Heleos II light scattering and Optilab T-rEX dRI detectors
DdahB (C. jejuni) = target: DdahB (C. jejuni)
DdahC (C. jejuni) = target: DdahC (C. jejuni)
MlghB (C. jejuni) = target: MlghB (C. jejuni)
MlghC (C. jejuni) = target: MlghC (C. jejuni)

## DdahB (enzyme)
DdahB (C. jejuni)
  stoichiometry N: 2

## DdahC (enzyme)
DdahC (C. jejuni)
  stoichiometry N: 2

## MlghB (enzyme)
MlghB (C. jejuni)
  stoichiometry N: 2

## MlghC (enzyme)
MlghC (C. jejuni)
  stoichiometry N: 2
